Results taken from patent US10800813 (Bicycle, dated 2020).
Numbered stars: 1 amine (or outer) side, 2 acyl side, 3 side chain; on linkers, the order of the positions; unused ones are H or OH. Bridge positions count the residues as written; N and C are the ends. Square brackets hold non-standard residues; d marks the D form. Ends that are not written are not given here. Bip = N[C@@H](Cc1ccc(-c2ccccc2)cc1)C(=O)O; 1Nal = N[C@@H](Cc1cccc2ccccc12)C(=O)O; 2Nal = N[C@@H](Cc1ccc2ccccc2c1)C(=O)O; TBMB = c1c(C[*:1])cc(C[*:3])cc1C[*:2]; 3Pal = N[C@@H](Cc1cccnc1)C(=O)O; 4Pal = N[C@@H](Cc1ccncc1)C(=O)O; Cha = N[C@@H](CC1CCCCC1)C(=O)O

These binders were tested against T1, biotinylated human plasma Kallikrein (human, UniProt P03952 20-638, biotinylated) (assay: phage binding assay, signal:background).
T1 construct: also called Biotinylated hPK
T1 sequence (P03952 20-638 limits assumed): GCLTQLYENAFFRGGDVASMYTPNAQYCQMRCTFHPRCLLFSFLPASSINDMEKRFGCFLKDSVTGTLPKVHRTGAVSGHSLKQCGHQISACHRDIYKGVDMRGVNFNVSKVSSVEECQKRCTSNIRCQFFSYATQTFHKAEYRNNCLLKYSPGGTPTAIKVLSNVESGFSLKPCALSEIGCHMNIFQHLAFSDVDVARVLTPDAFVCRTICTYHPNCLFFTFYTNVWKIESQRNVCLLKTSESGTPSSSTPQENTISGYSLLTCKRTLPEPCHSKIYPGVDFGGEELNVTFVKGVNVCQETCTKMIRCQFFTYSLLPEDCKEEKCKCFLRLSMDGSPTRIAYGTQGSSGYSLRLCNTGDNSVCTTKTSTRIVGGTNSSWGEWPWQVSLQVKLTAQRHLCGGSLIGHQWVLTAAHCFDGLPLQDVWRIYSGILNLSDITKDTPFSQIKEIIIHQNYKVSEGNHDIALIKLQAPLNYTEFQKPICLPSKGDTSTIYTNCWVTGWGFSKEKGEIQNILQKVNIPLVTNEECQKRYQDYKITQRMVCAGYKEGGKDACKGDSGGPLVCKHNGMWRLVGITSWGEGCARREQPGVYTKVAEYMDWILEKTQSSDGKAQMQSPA
Procedure: (§1) Library transformant colonies, or selection output colonies, were picked and grown as individual cultures in 2TY broth containing selective antibiotic. The picked colonies were DNA-sequenced using a QIAgen PyroMark Q96 DNA sequencer to reveal the amino-acid substitution present in each clone, and were assayed for human plasma Kallikrein binding as follows. The phage-containing supernatant was harvested from the culture and phage were cyclised with tris bromomethyl benzene(TBMB) based on the methods of Heinis et al (Nature Chemical Biology vol. 5 pp 502-507 (2009)). The purified phage from this process were assayed for binding to biotinylated human plasma Kallikrein using a homogeneous plate-based binding assay; assay read-out measured on a BMG Labtech Pherastar FS plate reader. The quantitative binding data from duplicate assay samples was averaged (mean) and expressed as signal:background. […] The assay data was correlated with the peptide sequences.
Selections against human plasma Kallikrein were performed with this library in order to study the non-WPAR (SEQ ID NO: 18) determinants of Kallikrein binding, and to isolate the optimal WPAR (SEQ ID NO: 18)-containing peptide sequence.

Binder	Binding assay signal
CSWPARCTHQDLC (linker 1-7-13 via TBMB) [SEQ ID NO 73]	110

These binders were tested against T2, human plasma Kallikrein (human, UniProt P03952 20-638, limits assumed) (assay: enzyme inhibition assay).
T2 construct: also called hPK; human PK
T2 sequence (P03952 20-638 limits assumed): as above

Binder	Ki [nM]
ACSWPARCNHQDLCA (linker 2-8-14 via TBMB; not fully specified (N-terminus, C-terminus), also called PK105) [06-57]	0.4
ACRWPARCLTTSLCA (linker 2-8-14 via TBMB; not fully specified (N-terminus, C-terminus), also called PK102) [06-59]	0.5
ACTWPARCTHQNWCA (linker 2-8-14 via TBMB; not fully specified (N-terminus, C-terminus), also called PK107) [06-09]	1.2
ACTWPARCTMQNWCA (linker 2-8-14 via TBMB, also called PK108) [06-A2*]	181
ACNWPYRCLHTDLCA (linker 2-8-14 via TBMB; not fully specified (N-terminus, C-terminus), also called PK110) [06-157]	3.3
ACSWPYRCLHQDYCA (linker 2-8-14 via TBMB; not fully specified (N-terminus, C-terminus), also called PK109) [06-61]	5.8
ACGVPYRCTHQEMCA (linker 2-8-14 via TBMB; not fully specified (N-terminus, C-terminus), also called PK111) [06-64 T]	6.9
ACADPWACLFRRPCA (linker 2-8-14 via TBMB; not fully specified (N-terminus, C-terminus), also called PK113) [06-63 T]	1280
ACAWPAKCLTRELCA (linker 2-8-14 via TBMB, also called PK103) [1B1]	8.1
ACGGYNNCRAFSYCA (linker 2-8-14 via TBMB, also called PK115) [1F7]	2.2

Molecular target: T2, human plasma Kallikrein
Test: enzyme inhibition assay
Remark: another data set of the same source

Binder	Ki [nM]
Ac-CS[3Pal]PYRCLHQDLC-NH2 (linker 1-7-13 via TBMB) [Ac-(06-34-18) 3Pal2 Tyr4]	0.91
Ac-CS[4Pal]PYRCLHQDLC-NH2 (linker 1-7-13 via TBMB) [Ac-(06-34-18) 4Pal2 Tyr4]	3.56
Ac-CS[Cha]PYRCLHQDLC-NH2 (linker 1-7-13 via TBMB) [Ac-(06-34-18) Cha2 Tyr4]	1.87
Ac-CSFP[Cha]RCLHQDLC-NH2 (linker 1-7-13 via TBMB; SMILES CC(=O)N[C@H]1CSCc2cc3cc(c2)CSC[C@H](NC(=O)[C@H](CCCNC(=N)N)NC(=O)[C@H](CC2CCCCC2)NC(=O)[C@@H]2CCCN2C(=O)[C@H](Cc2ccccc2)NC(=O)[C@H](CO)NC1=O)C(=O)N[C@@H](CC(C)C)C(=O)N[C@@H](Cc1c[nH]cn1)C(=O)N[C@@H](CCC(N)=O)C(=O)N[C@@H](CC(=O)O)C(=O)N[C@@H](CC(C)C)C(=O)N[C@H](C(N)=O)CSC3) [Ac-(06-34-18) Phe2 Cha4]	0.91
Ac-CSFP[3Pal]RCLHQDLC-NH2 (linker 1-7-13 via TBMB) [Ac-(06-34-18) Phe2 3Pal4]	2.57
Ac-CSFP[4Pal]RCLHQDLC-NH2 (linker 1-7-13 via TBMB; SMILES CC(=O)N[C@H]1CSCc2cc3cc(c2)CSC[C@H](NC(=O)[C@H](CCCNC(=N)N)NC(=O)[C@H](Cc2ccncc2)NC(=O)[C@@H]2CCCN2C(=O)[C@H](Cc2ccccc2)NC(=O)[C@H](CO)NC1=O)C(=O)N[C@@H](CC(C)C)C(=O)N[C@@H](Cc1c[nH]cn1)C(=O)N[C@@H](CCC(N)=O)C(=O)N[C@@H](CC(=O)O)C(=O)N[C@@H](CC(C)C)C(=O)N[C@H](C(N)=O)CSC3) [Ac-(06-34-18) Phe2 4Pal4]	2.2
Ac-CSFP[1Nal]RCLHQDLC-NH2 (linker 1-7-13 via TBMB; SMILES CC(=O)N[C@H]1CSCc2cc3cc(c2)CSC[C@H](NC(=O)[C@H](CCCNC(=N)N)NC(=O)[C@H](Cc2cccc4ccccc24)NC(=O)[C@@H]2CCCN2C(=O)[C@H](Cc2ccccc2)NC(=O)[C@H](CO)NC1=O)C(=O)N[C@@H](CC(C)C)C(=O)N[C@@H](Cc1c[nH]cn1)C(=O)N[C@@H](CCC(N)=O)C(=O)N[C@@H](CC(=O)O)C(=O)N[C@@H](CC(C)C)C(=O)N[C@H](C(N)=O)CSC3) [Ac-(06-34-18) Phe2 1Nal4]	13.5
Ac-CSFP[2Nal]RCLHQDLC-NH2 (linker 1-7-13 via TBMB) [Ac-(06-34-18) Phe2 2Nal4]	7.27
Ac-CSFP[Bip]RCLHQDLC-NH2 (linker 1-7-13 via TBMB) [Ac-(06-34-18) Phe2 4,4-BPal4]	10.5

These binders were tested against T1, biotinylated human plasma Kallikrein (assay: phage binding assay).
Procedure: as §1
A library was constructed where positions 1, 6, 7, 8, 9 &10 of 06-34-03 were fixed and positions 2, 3, 4 & 5 were randomised (see 'Randomisation of peptide domains—Library construction' in Methods above). Selections against human plasma Kallikrein were performed at a variety of stringencies (see 'Phage selections' in Methods above). All output sequences were identified and analysed for target binding (see 'Randomisation of peptide domains—Assay of binding of individual clones' in Methods above). Table 17 lists each unique sequence, its relative abundance in the selection output (frequency), and a rank number according to target binding strength.

Binder	Rank (by Kallikrein binding)
CSWPARCTHQDLC (linker 1-7-13 via TBMB) [SEQ ID NO 73]	1

Molecular target: T2, human plasma Kallikrein
Test: enzyme inhibition assay
Remark: another data set of the same source

Binder	Ki [nM]
Ac-CS[1Nal]PARCLHQDLC-NH2 (linker 1-7-13 via TBMB; SMILES CC(=O)N[C@H]1CSCc2cc3cc(c2)CSC[C@H](NC(=O)[C@H](CCCNC(=N)N)NC(=O)[C@H](C)NC(=O)[C@@H]2CCCN2C(=O)[C@H](Cc2cccc4ccccc24)NC(=O)[C@H](CO)NC1=O)C(=O)N[C@@H](CC(C)C)C(=O)N[C@@H](Cc1c[nH]cn1)C(=O)N[C@@H](CCC(N)=O)C(=O)N[C@@H](CC(=O)O)C(=O)N[C@@H](CC(C)C)C(=O)N[C@H](C(N)=O)CSC3) [Ac-(06-34-18) 1NAL2]	10.7
Ac-CS[2Nal]PARCLHQDLC-NH2 (linker 1-7-13 via TBMB; SMILES CC(=O)N[C@H]1CSCc2cc3cc(c2)CSC[C@H](NC(=O)[C@H](CCCNC(=N)N)NC(=O)[C@H](C)NC(=O)[C@@H]2CCCN2C(=O)[C@H](Cc2ccc4ccccc4c2)NC(=O)[C@H](CO)NC1=O)C(=O)N[C@@H](CC(C)C)C(=O)N[C@@H](Cc1c[nH]cn1)C(=O)N[C@@H](CCC(N)=O)C(=O)N[C@@H](CC(=O)O)C(=O)N[C@@H](CC(C)C)C(=O)N[C@H](C(N)=O)CSC3) [Ac-(06-34-18) 2NAL2]	0.5
Ac-CS[3Pal]PARCLHQDLC-NH2 (linker 1-7-13 via TBMB; SMILES CC(=O)N[C@H]1CSCc2cc3cc(c2)CSC[C@H](NC(=O)[C@H](CCCNC(=N)N)NC(=O)[C@H](C)NC(=O)[C@@H]2CCCN2C(=O)[C@H](Cc2cccnc2)NC(=O)[C@H](CO)NC1=O)C(=O)N[C@@H](CC(C)C)C(=O)N[C@@H](Cc1c[nH]cn1)C(=O)N[C@@H](CCC(N)=O)C(=O)N[C@@H](CC(=O)O)C(=O)N[C@@H](CC(C)C)C(=O)N[C@H](C(N)=O)CSC3) [Ac-(06-34-18) 3Pal2]	59
Ac-CS[4Pal]PARCLHQDLC-NH2 (linker 1-7-13 via TBMB; SMILES CC(=O)N[C@H]1CSCc2cc3cc(c2)CSC[C@H](NC(=O)[C@H](CCCNC(=N)N)NC(=O)[C@H](C)NC(=O)[C@@H]2CCCN2C(=O)[C@H](Cc2ccncc2)NC(=O)[C@H](CO)NC1=O)C(=O)N[C@@H](CC(C)C)C(=O)N[C@@H](Cc1c[nH]cn1)C(=O)N[C@@H](CCC(N)=O)C(=O)N[C@@H](CC(=O)O)C(=O)N[C@@H](CC(C)C)C(=O)N[C@H](C(N)=O)CSC3) [Ac-(06-34-18) 4Pal2]	72
Ac-CS[Cha]PARCLHQDLC-NH2 (linker 1-7-13 via TBMB; SMILES CC(=O)N[C@H]1CSCc2cc3cc(c2)CSC[C@H](NC(=O)[C@H](CCCNC(=N)N)NC(=O)[C@H](C)NC(=O)[C@@H]2CCCN2C(=O)[C@H](CC2CCCCC2)NC(=O)[C@H](CO)NC1=O)C(=O)N[C@@H](CC(C)C)C(=O)N[C@@H](Cc1c[nH]cn1)C(=O)N[C@@H](CCC(N)=O)C(=O)N[C@@H](CC(=O)O)C(=O)N[C@@H](CC(C)C)C(=O)N[C@H](C(N)=O)CSC3) [Ac-(06-34-18) Cha2]	4.7
